# In PMC2660415:
# Key:
# Assay in all cases: SEC; gel filtration on Superdex 200 (AKTA-FPLC) followed by SDS-PAGE; P proteins released from GST by thrombin; P particles form a peak at ~830 kDa and the P dimer at ~69 kDa
# [1] = target: MOH (GII-5) norovirus P domain with C-terminal … peptide, wild type (P particle / P dimer) (norovirus strain MOH (GII-5))
# [2] = target: Norwalk virus (GI-1) P domain with N-terminal CNGRC peptide, wild type (P particle / P dimer) (Norwalk virus (GI-1))
# [3] = target: Boxer (GI-8) norovirus P domain with C-terminal … peptide, wild type (P particle / P dimer) (norovirus strain Boxer (GI-8))
# [4] = target: VA207 (GII-9) norovirus P domain with C-terminal … peptide, wild type (P particle / P dimer) (norovirus strain VA207 (GII-9))
substance,measurement,setting,value
"MOH (GII-5) norovirus P domain with C-terminal … peptide, wild type (P particle / P dimer) (domain or fragment)",efficiency of P particle formation,[1],80%
"Norwalk virus (GI-1) P domain with N-terminal CNGRC peptide, wild type (P particle / P dimer) (domain or fragment)",efficiency of P particle formation,[2],70%
"Boxer (GI-8) norovirus P domain with C-terminal … peptide, wild type (P particle / P dimer) (domain or fragment)",efficiency of P particle formation,[3],80%
"VA207 (GII-9) norovirus P domain with C-terminal … peptide, wild type (P particle / P dimer) (domain or fragment)",efficiency of P particle formation,[4],90%
